Measurements reported in publication PMC8660260 (2021).

T1: NSP12 peptide on HLA-A*02:01 (human)
T1 peptide: FVDGVPFVV

T2: NSP12 peptide on HLA-A*02:01 (human)
T2 peptide: TMADLVYAL

B1: CoVTCR 19 (TCR)
alpha TRAV35 TRAJ43 CDR3: CAGQLARDMRF
beta TRBV13 TRBJ2-7 CDR3: CASRWAGGTAYEQYF
B2: CoVTCR 18 (TCR)
alpha TRAV12-1 TRAJ45 CDR3: CVLPSGGGADGLTF
beta TRBV5-1 TRBJ2-1 CDR3: CASTGLAGGPYNEQFF
B3: CoVTCR 12 (TCR)
alpha TRAV17 TRAJ57 CDR3: CATVLPTQGGSEKLVF
beta TRBV18 TRBJ1-1 CDR3: CASSLTVNMNTEAFF

Legend:
[1] = molecular target: T1, NSP12 peptide on HLA-A*02:01; test: activation reporter or marker
[2] = molecular target: T2, NSP12 peptide on HLA-A*02:01; test: activation reporter or marker

Binder | binding result [1] | binding result [2]
B1 | recognises | 
B2 | recognises | 
B3 |  | recognises
